# T1: Murine PD-1 on cells (mouse, UniProt Q02242 25-288)
# T1 construct: also called Cells expressing murine PD-1
# T1 sequence: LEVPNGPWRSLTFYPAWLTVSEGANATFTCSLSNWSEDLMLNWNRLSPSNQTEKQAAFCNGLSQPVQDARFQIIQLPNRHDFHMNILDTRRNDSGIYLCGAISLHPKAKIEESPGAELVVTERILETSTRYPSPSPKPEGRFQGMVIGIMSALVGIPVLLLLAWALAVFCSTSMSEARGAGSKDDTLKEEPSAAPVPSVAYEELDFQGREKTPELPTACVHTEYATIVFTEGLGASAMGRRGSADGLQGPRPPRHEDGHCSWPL
# T2: Murine PD-1 fusion protein (mouse, UniProt Q02242 25-167)
# T2 construct: also called mouse PD-1 fusion protein; not shown: fusion partner not described
# T2 sequence: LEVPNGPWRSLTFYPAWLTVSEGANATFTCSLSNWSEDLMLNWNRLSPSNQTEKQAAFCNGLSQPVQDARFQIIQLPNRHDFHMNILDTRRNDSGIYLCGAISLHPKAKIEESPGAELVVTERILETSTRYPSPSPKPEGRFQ
# B1: PD1-35 IgG (antibody, V domains shown)
# VH: QVQLQESGPGLVKPSQTLSLTCTVSGGSISSGAYYWSWIRQHPGKGLEWIGYIYYNGNTYYNPSLRSLVTISVDASKNQFSLKLSSVTAADTAVYYCARASDYVWGGYRYMDAFDIWGRGTLITVSS
# VL: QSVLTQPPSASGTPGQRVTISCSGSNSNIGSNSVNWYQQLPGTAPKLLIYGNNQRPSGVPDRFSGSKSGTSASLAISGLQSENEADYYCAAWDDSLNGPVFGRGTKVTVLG
# notes: also called PD-35
# B2: PD1-33 scFv (scFv, V domains shown)
# VH: QVQLVQSGAEVKKPGASVRVSCKASGYTLTSYYIHWVRQAPGQGLEWMGIINPRGATISYAQKFQGRVTMTRDTSTSTVYMELRNLKSEDTALYYCATAGIYGFDFDYWGRGTLVTVSS
# VL: QSALTQPASVSGSPGQSITISCTGTSNDVGGYNYVSWYQHHPGKAPKLIIYDVTNRPSGVSDRFSGSKSGNTASLTISGLLAEDEGDYYCSSYTIVTNFEVLFGGGTKLTV
# B3: PD1-33 IgG (antibody, V domains shown)
# VH: B2 VH
# VL: B2 VL
# B4: PD1-17 scFv (scFv, V domains shown)
# VH: QVQLQESGPGVVKPSGTLSLTCAISGGSIGSGGSIRSTRWWSWVRQSPGKGLEWIGEIYHSGSTNYNPSLKSRVTISLDKSRNHFSLRLNSVTAADTAVYYCARQDYGDSGDWYFDLWGKGTMVTVSS
# VL: NFMLTQPHSVSESPGKTVTISCTRSSGSIASNSVQWYQQRPGSSPTTVIYEDNQRPSGVPDRFSGSIDSSSNSASLTVSGLKTEDEADYYCQSSDSSAVVFGSGTKLTVL
# notes: not shown: scFv linker, order of the domains and vector tags (pCANTAB6 phagemid library)
# B5: PD1-17 IgG (antibody, V domains shown)
# VH: B4 VH
# VL: B4 VL
# notes: also called anti-PD-1 antibody PD1-17
# B6: PD1-28 IgG (antibody, V domains shown)
# VH: EVQLVQSGAEVKKPGASVKVSCKASGYRFTSYGISWVRQAPGQGLEWMGWISAYNGNTNYAQKLQGRVTMTTDTSTNTAYMELRSLRSDDTAVYYCARDADYSSGSGYWGQGTLVTVSS
# VL: SYELTQPPSVSVSPGQTARITCSGDALPKQYAYWYQQKPGQAPVMVIYKDTERPSGIPERFSGSSSGTKVTLTISGVQAEDEADYYCQSADNSITYRVFGGGTKVTVL
# B7: PD1-28 scFv (scFv, V domains shown)
# VH: B6 VH
# VL: B6 VL
# notes: as for B4
# B8: PD1-F2 scFv (scFv, V domains shown)
# VH: EVQLVQSGGGVVQPGRSLRLSCAASGFTFSSYWMSWVRQAPGKGLEWVSAISGSGGSTYYADSVKGRFTISRDNSKNTLYLQMNSLRAEDTAVYYCAKENWGSYFDLWGQGTTVTVSS
# VL: DIVMTQSPSTLSASVGDRVTITCRASQGISSWLAWYQQKPGRAPKVLIYKASTLESGVPSRFSGSGSGTDFTLTISSLQPEDFATYYCQQSYSTPWTFGQGTKLEIK
# B9: PD1-F2 IgG (antibody, V domains shown)
# VH: B8 VH
# VL: DIVMTQSPSTLSASVGDRVTITCRASQGISSWLAWYQQKPGRAPKVLIYKASTLESGVPSRFSGSGSGTDFTLTISSLQPEDFATYYCQQSYSTPWTFGQGTKLEIKR
# notes: also called anti-mouse PD1 antibody PD1-F2
# How the values were obtained:
# [1] = biological target: T3, Human PD-1 fusion protein (human, UniProt Q15116 25-167); experiment: IgG; inhibition of biotinylated human PD-L1 fusion binding to plate-bound human PD-1 fusion
# T3 construct: also called Soluble PD-1 fusion protein; human PD-1/IgG chimera; not shown: fusion partner, called IgG in 'PD-1/IgG chimera'
# T3 sequence (Q15116 other isoform, or with tags, fused parts or gaps): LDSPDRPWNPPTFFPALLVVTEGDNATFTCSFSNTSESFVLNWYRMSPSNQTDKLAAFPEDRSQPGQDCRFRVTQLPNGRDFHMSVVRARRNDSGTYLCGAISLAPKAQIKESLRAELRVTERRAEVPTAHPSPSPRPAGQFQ
# Method: Crude scFv-containing periplasmic extracts were obtained by subjecting the bacterial pellets from the overnight induction to osmotic shock. Pellets were resuspended in 20% (w/v) sucrose, 50 mM Tris-HCl, pH 7.5, 1 mM EDTA and cooled on ice for 30 minutes. Cellular debris was removed by centrifugation, and the scFv was purified by chromatography and buffer-exchanged into PBS. […] Binding of biotinylated PD-L1 fusion protein was detected with AMDEX-alkaline phosphatase, and the signal generated was measured by reading the absorbance at 405 nm using a microtiter plate reader. […]
# [2] = biological target: T3, Human PD-1 fusion protein; experiment: scFv; inhibition of biotinylated human PD-L1 fusion binding to plate-bound human PD-1 fusion
# Method: ScFv production was induced by addition of 1 mM IPTG to exponentially growing cultures and incubation overnight at 30° C. Crude scFv-containing periplasmic extracts were obtained by subjecting the bacterial pellets from the overnight induction to osmotic shock. Pellets were resuspended in 20% (w/v) sucrose, 50 mM Tris-HCl, pH 7.5, 1 mM EDTA and cooled on ice for 30 minutes. Cellular debris was removed by centrifugation, and the scFv was purified by chromatography and buffer-exchanged into PBS. Purified scFv's (PD1-17, PD1-28, PD1-33, and PD1-35) were tested for the ability to inhibit the binding of biotinylated human PD-L1 fusion protein to human PD-1 fusion protein immobilized on plastic in a 96 well microtiter plate assay. Binding of biotinylated PD-L1 fusion protein was detected with AMDEX-alkaline phosphatase, and the signal generated was measured by reading the absorbance at 405 nm using a microtiter plate reader. Data was expressed as a percentage of the total binding and a titration of scFv concentrations was tested to establish clone potency as calculated IC₅₀ values.
# Murine PD-1 on cells [3] = biological target: T1, Murine PD-1 on cells; experiment: scFv; inhibition of biotinylated murine PD-L1 fusion binding to cells expressing murine PD-1
# Method: (§1) PD1-F2 scFv was produced and purified as described above. Cells expressing murine PD-1 were added at 10⁵ cells/well in a final volume of 100 μl to a poly-D-lysine-coated 96 well microtiter plate. Cells were centrifuged and washed twice in PBS, then blocked with 300 μl […] in PBS for 1 hour at room temperature. Blocked cells were washed three times in PBST, prior to addition of 25 μl/well of assay buffer (0.05% BSA, 0.05% Tween 20 in Dulbecco's PBS) or sample, followed by 25 μl of biotinylated murine PD-L1 fusion protein at 300 ng/ml. Binding of biotinylated PD-L1 fusion protein was detected with Amdex alkaline phosphatase and signals read as described above.
# Murine PD-1 on cells [4] = biological target: T1, Murine PD-1 on cells; experiment: IgG; inhibition of biotinylated murine PD-L1 fusion binding to cells expressing murine PD-1
# Method: as §1, with “Cells” for “PD1-F2 scFv was produced and purified as described above. Cells”
# [5] = biological target: T2, Murine PD-1 fusion protein; experiment: SPR (BIAcore 3000), murine PD-1 fusion immobilized on CM5 chip, antibody 7.81 to 125 nM in flow
# Method: The binding affinity of the anti-mouse PD1 antibody PD1-F2 was determined with a Surface Plasmon Resonance (SPR) system (BIAcore 3000) (Biacore, Piscataway, N.J.) using murine PD-1 fusion immobilized on a CM5 sensor chip. The concentration of PD1-F2 in the flow cell ranged from 7.81 to 125 nM, while the concentration of the anti-mouse PD1 antibody J43 (eBioscience, San Diego, Calif.) ranged from 25 nM to 500 nM.
binder,measurement,setting,value
B1,IC50,[1],2.3 nM
B2,IC50,[2],74 nM
B3,IC50,[1],1.8 nM
B4,IC50,[2],726 nM
B5,IC50,[1],2.5 nM
B6,IC50,[1],1.4 nM
B7,IC50,[2],560 nM
B8,IC50,Murine PD-1 on cells [3],28 nM
B9,IC50,Murine PD-1 on cells [4],1 nM
same,Ka,[5],1.5e+08 M⁻¹
same,Kd,[5],6.7 nM

# — patent US20040213795A1 (Pfizer, published 2004)
